From article PMC2532715 come the findings set out here.

For this series, the target named is T1, SgrAI restriction endonuclease (UniProt Q9F6L0 1-338).
T1 sequence: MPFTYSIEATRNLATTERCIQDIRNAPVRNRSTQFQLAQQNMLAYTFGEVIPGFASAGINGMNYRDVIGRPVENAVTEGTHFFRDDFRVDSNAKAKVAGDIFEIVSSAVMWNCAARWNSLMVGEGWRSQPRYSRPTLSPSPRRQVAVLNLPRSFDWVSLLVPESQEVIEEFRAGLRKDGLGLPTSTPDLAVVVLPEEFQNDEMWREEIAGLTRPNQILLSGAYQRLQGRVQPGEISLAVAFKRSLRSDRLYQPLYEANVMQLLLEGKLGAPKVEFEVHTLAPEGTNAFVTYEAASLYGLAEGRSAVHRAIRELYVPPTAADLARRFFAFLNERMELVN
Put plainly: X-ray crystallography.

B1: Cognate 18 (dsDNA)
DNA 1: GAGTCCACCGGTGGACTC
DNA 2: GAGTCCACCGGTGGACTC
For the molecule B1, the binding result is “binds”.
